This is an account of results in ChEMBL document CHEMBL1250451, “Mechanistic insights into a Ca2+-dependent family of alpha-mannosidases in a human gut symbiont” (Nat Chem Biol, 2010).

Substitutions are numbered along the chain they refer to. Names and notes keep the numbering of the source.

What all share (assay type): protein assay
Substrate in data set [1]: O=[N+]([O-])c1ccc(O[C@H]2O[C@H](CO)[C@@H](O)[C@H](O)[C@@H]2O)cc1
The experiment in a line: (§1) Ratio of Kcat to Km for Bacteroides thetaiotaomicron GH92 alpha-mannosidase 3990 D644N mutant assessed as as mannose release after 16 hrs by HPLC relative to wild type enzyme.

Substrate in data set [2]: OC[C@H]1O[C@H](O[C@H]2[C@@H](O)[C@H](O)[C@@H](CO)O[C@@H]2O)[C@@H](O)[C@@H](O)[C@@H]1O
The description is as §1.

Substrate in data set [3]: O=[N+]([O-])c1ccc(O[C@H]2O[C@H](CO)[C@@H](O)[C@H](O)[C@@H]2O)c([N+](=O)[O-])c1
The data set is described as §1.

Substrate in data set [4]: O=[N+]([O-])c1ccc(O[C@H]2O[C@H](CO)[C@@H](O)[C@H](O)[C@@H]2O)cc1
The data set can be described thus: (§2) Activity of Bacteroides thetaiotaomicron GH92 alpha-mannosidase 3990 D644N mutant assessed as as mannose release after 16 hrs by HPLC relative to wild type enzyme.

Substrate in data set [5]: OC[C@H]1O[C@H](O[C@H]2[C@@H](O)[C@H](O)[C@@H](CO)O[C@@H]2O)[C@@H](O)[C@@H](O)[C@@H]1O
The description is as §2.

Substrate in data set [6]: O=[N+]([O-])c1ccc(O[C@H]2O[C@H](CO)[C@@H](O)[C@H](O)[C@@H]2O)cc1
The experiment in a line: (§3) Ratio of Kcat to Km for Bacteroides thetaiotaomicron GH92 alpha-mannosidase 3990 E643A mutant assessed as as mannose release after 16 hrs by HPLC relative to wild type enzyme.

Substrate in data set [7]: OC[C@H]1O[C@H](O[C@H]2[C@@H](O)[C@H](O)[C@@H](CO)O[C@@H]2O)[C@@H](O)[C@@H](O)[C@@H]1O
The data set is described as §3.

Substrate in data set [8]: O=[N+]([O-])c1ccc(O[C@H]2O[C@H](CO)[C@@H](O)[C@H](O)[C@@H]2O)c([N+](=O)[O-])c1
Described as §3.

Substrate in data set [9]: O=[N+]([O-])c1ccc(O[C@H]2O[C@H](CO)[C@@H](O)[C@H](O)[C@@H]2O)cc1
The experiment in a line: (§4) Activity of Bacteroides thetaiotaomicron GH92 alpha-mannosidase 3990 E643A mutant assessed as as mannose release after 16 hrs by HPLC relative to wild type enzyme.

Substrate in data set [10]: OC[C@H]1O[C@H](O[C@H]2[C@@H](O)[C@H](O)[C@@H](CO)O[C@@H]2O)[C@@H](O)[C@@H](O)[C@@H]1O
Described as §4.

Substrate in data set [11]: O=[N+]([O-])c1ccc(O[C@H]2O[C@H](CO)[C@@H](O)[C@H](O)[C@@H]2O)cc1
The data set can be described thus: (§5) Activity of Bacteroides thetaiotaomicron GH92 alpha-mannosidase 3990 D644A mutant assessed as as mannose release after 16 hrs by HPLC relative to wild type enzyme.

Substrate in data set [12]: OC[C@H]1O[C@H](O[C@H]2[C@@H](O)[C@H](O)[C@@H](CO)O[C@@H]2O)[C@@H](O)[C@@H](O)[C@@H]1O
Described as §5.

Substrate in data set [13]: O=[N+]([O-])c1ccc(O[C@H]2O[C@H](CO)[C@@H](O)[C@H](O)[C@@H]2O)cc1
The experiment in a line: (§6) Ratio of Kcat to Km for Bacteroides thetaiotaomicron GH92 alpha-mannosidase 3990 D644A mutant assessed as as mannose release after 16 hrs by HPLC relative to wild type enzyme.

Substrate in data set [14]: OC[C@H]1O[C@H](O[C@H]2[C@@H](O)[C@H](O)[C@@H](CO)O[C@@H]2O)[C@@H](O)[C@@H](O)[C@@H]1O
The description is as §6.

Substrate in data set [15]: O=[N+]([O-])c1ccc(O[C@H]2O[C@H](CO)[C@@H](O)[C@H](O)[C@@H]2O)c([N+](=O)[O-])c1
The data set is described as §6.

Substrate in data set [16]: O=[N+]([O-])c1ccc(O[C@H]2O[C@H](CO)[C@@H](O)[C@H](O)[C@@H]2O)cc1
The data set can be described thus: (§7) Ratio of Kcat to Km for Bacteroides thetaiotaomicron GH92 alpha-mannosidase 3990 E533Q mutant assessed as as mannose release after 16 hrs by HPLC relative to wild type enzyme.

Substrate in data set [17]: OC[C@H]1O[C@H](O[C@H]2[C@@H](O)[C@H](O)[C@@H](CO)O[C@@H]2O)[C@@H](O)[C@@H](O)[C@@H]1O
The description is as §7.

Substrate in data set [18]: O=[N+]([O-])c1ccc(O[C@H]2O[C@H](CO)[C@@H](O)[C@H](O)[C@@H]2O)c([N+](=O)[O-])c1
The description is as §7.

Substrate in data set [19]: O=[N+]([O-])c1ccc(O[C@H]2O[C@H](CO)[C@@H](O)[C@H](O)[C@@H]2O)cc1
The experiment in a line: (§8) Activity of Bacteroides thetaiotaomicron GH92 alpha-mannosidase 3990 E533Q mutant assessed as as mannose release after 16 hrs by HPLC relative to wild type enzyme.

Substrate in data set [20]: OC[C@H]1O[C@H](O[C@H]2[C@@H](O)[C@H](O)[C@@H](CO)O[C@@H]2O)[C@@H](O)[C@@H](O)[C@@H]1O
The description is as §8.

B1: Alpha-1,2-mannosidase (BT_3990) (Bacteroides thetaiotaomicron), Q8A0N1 D644N (protein)
chain: MKRLLLIACILNCTLLSQAKDWTQYVNPLMGSQSTFELSTGNTYPAIARPWGMNFWTPQTGKMGDGWQYTYTANKIRGFKQTHQPSPWINDYGQFSIMPIVGQPVFDEEKRASWFAHKGEVATPYYYKVYLAEHDIVTEMTPTERAVLFRFTFPENDHSYVVVDAFDKGSYIKIIPEENKIIGYTTRNSGGVPENFKNYFIIEFDKPFTYKATVENGNLQENVAEQTTDHAGAIIGFKTRKGEQVNARIASSFISFEQAAANMNELGKDNIEQLAQKGKDAWNQVLGKIEVEGGNLDQYRTFYSCLYRSLLFPRKFYELDANGQPIHYSPYNGQVLPGYMFTDTGFWDTFRCLFPLLNLMYPSVNKEMQEGLINTYLESGFFPEWASPGHRGCMVGNNSASILVDAYMKGVKVDDIKTLYEGLIHGTENVHPEVSSTGRLGYEYYNKLGYVPYDVKINENAARTLEYAYDDWCIYRLAKELKRPKKEISLFAKRAMNYKNLFDKESKLMRGRNEDGTFQSPFSPLKWGDAFTEGNSWHYTWSVFHDPQGLIDLMGGKEMFVTMMDSVFAVPPIFDDSYYGQVIHEIREMTVMNMGNYAHGNQPIQHMIYLYDYAGQPWKAQYWLRQVMDRMYTPGPDGYCGDENNGQTSAWYVFSALGFYPVCPGTDEYVMGTPLFKKATLHFENGNSLVIDAPNNSTENFYIDSMSFNGADHTKNYLRHEDLFKGGTIKVDMSNRPNLNRGTKEEDMPYSFSKE
As usually defined, the kcat/Km is the turnover number divided by the Michaelis constant. As a reminder, the Km is the concentration of substrate that gives half-maximal velocity. By kcat is commonly meant the number of substrate molecules converted per active site and unit of time at saturation. For B1, the kcat/Km entry is “Not Active” in data set [1], 0.533 M⁻¹ s⁻¹ in data set [2] and 0.567 M⁻¹ s⁻¹ in data set [3]. For the same protein, the results for the Km entry in data set [4] and in data set [5] were “Not Active” and 720 µM, respectively. Further, the kcat entry in [4] was “Not Active”; in data set [5], 0.000383 s⁻¹.

B2: Alpha-1,2-mannosidase (BT_3990) (Bacteroides thetaiotaomicron), Q8A0N1 E643A (protein)
chain: B1 chain with E643A, N644D
As for B2, the catalytic efficiency (kcat/Km) entry in data set [6] was “Not Active”; in [7], 13.2 M⁻¹ s⁻¹; in data set [8], 0.25 M⁻¹ s⁻¹. The Km entry in [9] and in [10] was “Not Active” throughout. For the same protein, the turnover number (kcat) result in data set [9] and in data set [10] was “Not Active” each time.

B3: Alpha-1,2-mannosidase (BT_3990) (Bacteroides thetaiotaomicron), Q8A0N1 D644A (protein)
chain: B1 chain with N644A
B3: the Km entry in data set [11] is “Not Active”; in [12], 620 µM. For the same protein, the values for the kcat entry in data set [11] and in [12] were “Not Active” and 0.000783 s⁻¹, respectively. For the same protein, the results for the kcat/Km entry in data set [13], in [14] and in [15] were “Not Active”, 1.27 M⁻¹ s⁻¹ and 0.0167 M⁻¹ s⁻¹, respectively.

B4: Alpha-1,2-mannosidase (BT_3990) (Bacteroides thetaiotaomicron), Q8A0N1 E533Q (protein)
chain: B1 chain with E533Q, N644D
Consider B4, for which the values for the specificity constant (kcat/Km) in data set [16], in [17] and in data set [18] were 14.3 M⁻¹ s⁻¹, 0.25 M⁻¹ s⁻¹ and 10300 M⁻¹ s⁻¹, respectively. The Km was 10000 µM in data set [19] and 960 µM in data set [20]. Besides, the kcat in data set [19] turned out to be 0.147 s⁻¹; in data set [20], 0.000233 s⁻¹.
